Laboratory results: patent publication US20210024620A1

Experiments:
[1] = molecular target: biotinylated human FcRn (p51 subunit residues 24-297 with C-terminal Avi-tag; beta2-microglobulin residues 21-119) (human) (UniProt P55899); test: Biacore SPR, pH 6.0
[2] = molecular target: biotinylated human FcRn (p51 subunit residues 24-297 with C-terminal Avi-tag; beta2-microglobulin residues 21-119) (human) (UniProt P55899); test: Biacore SPR, pH 7.4, steady state
[3] = molecular target: biotinylated human FcRn (p51 subunit residues 24-297 with C-terminal Avi-tag; beta2-microglobulin residues 21-119) (human) (UniProt P55899); test: Biacore; affinity at pH 6.0 (M^-1) over steady state RU at pH 7.4
[4] = molecular target: biotinylated human FcRn (p51 subunit residues 24-297 with C-terminal Avi-tag; beta2-microglobulin residues 21-119) (human) (UniProt P55899); test: Biacore; inverse ratio (RU at pH 7.4 over affinity at pH 6.0)
[5] = molecular target: rat FcRn (rat) (UniProt P13599); test: Biacore SPR, pH 6.0
[6] = molecular target: biotinylated human FcRn (human) (UniProt P55899); test: Biacore SPR, pH 6.0
[7] = molecular target: rat FcRn (rat) (UniProt P13599); test: Biacore SPR, pH 7.4
[8] = molecular target: biotinylated human FcRn (human) (UniProt P55899); test: Biacore SPR, pH 7.4

Sequence of rat FcRn (rat) (P13599 23-298 limits assumed, chain 1 of 2): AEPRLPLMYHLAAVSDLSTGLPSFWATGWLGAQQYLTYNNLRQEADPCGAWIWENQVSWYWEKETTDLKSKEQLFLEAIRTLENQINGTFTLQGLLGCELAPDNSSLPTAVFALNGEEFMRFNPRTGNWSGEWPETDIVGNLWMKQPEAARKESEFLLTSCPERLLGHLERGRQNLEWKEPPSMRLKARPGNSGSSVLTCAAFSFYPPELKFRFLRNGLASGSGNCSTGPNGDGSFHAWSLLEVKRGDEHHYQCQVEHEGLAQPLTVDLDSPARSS
Sequence of rat FcRn (rat) (P07151 21-119 limits assumed, chain 2 of 2, further chain): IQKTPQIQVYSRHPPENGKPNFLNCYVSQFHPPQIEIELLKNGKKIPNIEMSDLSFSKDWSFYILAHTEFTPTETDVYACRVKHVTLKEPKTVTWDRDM

| Ka [1] | Steady State Binding, pH 7.4 (RU) [2] | Ratio (pH 6.0/pH 7.4) [3] | Ratio [4] | Kd [5] | koff [5] | kon [5] | Kd [6] | koff [6] | kon [6] | Ratio (pH 6.0/pH 7.4) [4] | Steady State RU [7] | Steady State RU [8] | Substance |
| --- | --- | --- | --- | --- | --- | --- | --- | --- | --- | --- | --- | --- | --- |
| 6.62e+06 M⁻¹ | 55.3 RU | – | – | – | – | – | – | – | – | – | – | – | mAb1 MDQF (T256D/T307Q/N434F) (antibody) |
| 6.41e+07 M⁻¹ | 37.1 RU | 1.73e+06 | – | 0.0006 µM | 0.00025 s⁻¹ | 413000 M⁻¹ s⁻¹ | 0.0156 µM | 0.0285 s⁻¹ | 1.83e+06 M⁻¹ s⁻¹ | – | 71.6 RU | 37.1 RU | mAb1 MDTY (T256D/N434Y) (antibody) |
| 142000 M⁻¹ | – | – | – | – | – | – | – | – | – | – | – | – | mAb1 MEQF (T256E/T307Q/N434F) (antibody) |
| 2.38e+07 M⁻¹ | 38.6 RU | 617000 | – | – | – | – | – | – | – | – | – | – | mAb1 MEQY (T256E/T307Q/N434Y) (antibody) |
| 1.6e+07 M⁻¹ | 26.8 RU | 597000 | – | 0.00771 µM | 0.00098 s⁻¹ | 127000 M⁻¹ s⁻¹ | 0.0626 µM | 0.0393 s⁻¹ | 628000 M⁻¹ s⁻¹ | – | 62.2 RU | 26.8 RU | mAb1 METY (T256E/N434Y) (antibody) |
| 5.62e+07 M⁻¹ | 41.9 RU | 1.34e+06 | – | – | – | – | – | – | – | 7.46e-07 | – | – | mAb1 MEWF (T256E/T307W/N434F) (antibody) |
| 3.1e+06 M⁻¹ | – | – | – | 0.0106 µM | – | – | 0.323 µM | – | – | – | 33 RU | – | mAb1 MEWN (T256E/T307W) (antibody) |
| 2.62e+07 M⁻¹ | 30.5 RU | – | – | 0.0027 µM | 0.00057 s⁻¹ | – | 0.0382 µM | – | – | – | 65.1 RU | 30.5 RU | mAb1 MTWF (T307W/N434F) (antibody) |
| 1.01e+07 M⁻¹ | 25.9 RU | 390000 | – | – | – | – | – | – | – | 2.56e-06 | – | – | mAb1 YDWN (M252Y/T256D/T307W) (antibody) |
| 6.41e+06 M⁻¹ | 69.6 RU | 92100 | – | – | – | – | – | – | – | 1.09e-05 | – | – | mAb1 YEWN (M252Y/T256E/T307W) (antibody) |
| 6.54e+07 M⁻¹ | 62.6 RU | 1.04e+06 | – | – | – | – | – | – | – | 9.57e-07 | – | – | mAb1 YTWF (M252Y/T307W/N434F) (antibody) |

The next lines start with the substance.

| Substance | Ka [1] | Steady State Binding, pH 7.4 (RU) [2] | Ratio (pH 6.0/pH 7.4) [3] | Ratio [4] | Kd [5] | koff [5] | kon [5] | Kd [6] | koff [6] | kon [6] | Ratio (pH 6.0/pH 7.4) [4] | Steady State RU [7] | Steady State RU [8] |
| --- | --- | --- | --- | --- | --- | --- | --- | --- | --- | --- | --- | --- | --- |
| mAb1 MDQY (T256D/T307Q/N434Y) (antibody) | 3.69e+07 M⁻¹ | 49.4 RU | 747000 | 1.34e-06 | – | – | – | – | – | – | – | – | – |
| mAb1 MDTF (T256D/N434F) (antibody) | 3.34e+07 M⁻¹ | 29.2 RU | 1.14e+06 | – | 0.00178 µM | 0.00039 s⁻¹ | 218000 M⁻¹ s⁻¹ | 0.0299 µM | 0.029 s⁻¹ | 968000 M⁻¹ s⁻¹ | 8.74e-07 | 63 RU | 29.2 RU |
| mAb1 MDWF (T256D/T307W/N434F) (antibody) | 2.81e+07 M⁻¹ | 47.1 RU | 597000 | – | – | – | – | – | – | – | 1.68e-06 | – | – |
| mAb1 MEQN (T256E/T307Q) (antibody) | 2e+06 M⁻¹ | – | – | – | 0.0107 µM | – | – | 0.499 µM | – | – | – | 23.4 RU | – |
| mAb1 MEWY (T256E/T307W/N434Y) (antibody) | 7.04e+07 M⁻¹ | 46.6 RU | 1.51e+06 | – | – | – | – | – | – | – | 6.62e-07 | – | – |
| mAb1 YDTF (M252Y/T256D/N434F) (antibody) | 2.96e+07 M⁻¹ | 57.7 RU | 513000 | – | – | – | – | – | – | – | 1.95e-06 | – | – |
| mAb1 YETY (M252Y/T256E/N434Y) (antibody) | 3.34e+07 M⁻¹ | 22.6 RU | 1.48e+06 | – | – | – | – | – | – | – | 6.77e-07 | – | – |
| mAb1 YTQF (M252Y/T307Q/N434F) (antibody) | 5.65e+07 M⁻¹ | 59.9 RU | 943000 | – | – | – | – | – | – | – | 1.06e-06 | – | – |
| mAb1 YTQY (M252Y/T307Q/N434Y) (antibody) | 6.33e+07 M⁻¹ | 71.5 RU | 885000 | – | – | – | – | – | – | – | 1.13e-06 | – | – |
